Data reported in patent US20240342244A1, “Isthmin Protein Therapeutics for the Treatment of Non-Alcoholic Fatty Liver Disease” (The Board of Trustees of the Leland Stanford Junior …, priority 2021, published 2024).

What was measured:
[1] = test system: differentiated 3T3-L1 adipocytes; test: 2-deoxy-3H-glucose uptake in differentiated 3T3-L1 adipocytes; format: cell-based; conditions: 1 h
Method: Glucose uptake. Glucose uptake was performed as previously described (You et al., 2017). Briefly, 2-Deoxy-d-[2,6-3H]-glucose was purchased from PerkinElmer NEN radiochemicals. Fully differentiated adipocytes were washed with KRH buffer and starved in 0.5% BSA in KRH buffer for 4 h. Indicated concentrations of insulin or ISM1 were added at indicated time points. Cells were treated with a mixture of 500 μM 2-deoxy-D-glucose and 1.71 μCimL^−1 2-Deoxy-D-[1,2-3H (N)]-glucose for another 10 min followed by three washes using ice cold KRH buffer containing 200 mM glucose. The passive glucose uptake in the presence of 50 uM CytoB was less than 12% of the total glucose uptake. Cells were solubilized in 1% SDS and radioactivity was measured by liquid scintillation counting.

[2] = test system: pAKT^S473; test: pAKT S473 signaling in 3T3-F442A cells (phosphokinase array, western blot); format: cell-based
Method: (§1) Western blots and molecular analyses. For western blotting, homogenized tissues or whole-cell lysates, samples were lysed in RIPA buffer containing protease inhibitor cocktail (Roche) and phosphatase inhibitor cocktail (Roche). Cell lysates were centrifuged at 14,000×g for 15 min and supernatants were prepared in 4×LDS Sample Buffer (Invitrogen) and separated by SDS-PAGE and transferred to Immobilon 0.45 μm membranes (Millipore). For Western blotting of plasma samples, 1 μl of plasma was prepared in 2× sample buffer (Invitrogen) with reducing agent, boiled, and analyzed using Western blot against indicated antibody. Protein kinase array (R&D systems ARY003B) was performed according to the manufacturers' description. All antibodies used in this paper are described in STAR methods.

[3] = test system: pAKT^T308, S6^S235/S236, PRAS40^Thr246, ERK1/2, PKA, PDK1, GSK3β; test: Time-course western blot of intracellular signaling pathways in 3T3-F442A cells; format: cell-based
Method: as §1

[4] = test system: AML12 hepatocytes; test: Lipogenesis assay (3H-acetate incorporation into lipids) in AML12 hepatocytes; format: cell-based, mouse; conditions: 24 h
Method: Lipogenesis Assay. Primary hepatocytes or AML12 hepatocytes were washed twice with warm PBS and starved in serum-free DMEM overnight. Indicated concentrations of insulin with or without ISM1 were added at the same time. After 24 h, a mixture of 10 μM cold acetate and 2 μCi [3H]-Acetate (#NET003H005MC, PerkinElmer) was added to each well and cells were incubated for another 4 hr. Cells were washed with PBS twice and lysed using 0.1 N hydrogen chloride. Lipids were extracted by 2:1 chloroform-methanol (v/v). After centrifugation at 3000×g for 10 min, the lower phase was transferred to scintillation vials and radioactivity was measured by liquid scintillation counting.

[5] = test system: srebp1c; test: Lipogenic gene and SREBP-1c protein expression in primary adipocytes; format: cell-based, mouse
Method: Gene expression analysis. Total RNA from cultured cells or tissues was isolated using TRIzol (Thermo Fischer Scientific) and Rneasy mini kits (QIAGEN). RNA was reverse transcribed using the ABI high capacity cDNA synthesis kit. For qRT-PCR analysis, cDNA, primers and SYBR-green fluorescent dye (ABI) were used. Relative mRNA expression was determined by normalization with Cyclophilin levels using the ΔΔCt method.
as §1

[6] = test system: DIO mice; test: Therapeutic ISM1 administration for five days in DIO mice; format: in vivo, mouse; conditions: 5 mg/kg for five days
Method: Therapeutic ISM1 recombinant protein administration in vivo. All pharmacologic studies using recombinant ISM1 protein were performed in mice with established diet-induced obesity or non-alcoholic fatty liver disease (NAFLD). For all experiments, male C57BL/6J mice purchased from Jax were fed either a high-fat diet (#D12492, Research Diets) or a NAFLD diet (#D09100310, Research Diets) prior to ISM1 protein injections. In all experiments, mice were mock injected with saline for three days prior to protein or drug injections to prevent stress-induced weight loss. Mice were I.P. injected with vehicle (saline) or indicated doses of ISM1 protein diluted in saline. For the 14-day experiments in NAFLD mice, 7-weeks old mice were fed with NAFLD diet for 3 weeks and then mock injected with saline for 3 days prior to protein injections. The induction of lipid accumulation with NAFLD diet was verified by the significant increase in hepatic lipid levels compared with mice on chow diet at the same time point. […] At the end of the experiments, mice and tissue weights were recorded. […]
Glucose tolerance and insulin tolerance tests. […] Blood glucose levels were measured at 0, 15, 30, 45, 60, 90 and 120 mins. […] Blood glucose levels were measured at 0, 15, 30, 45, 60, 90 and 120 mins.

[7] = test system: NAFLD mice; test: Therapeutic administration for 14 days in mice with established NAFLD; format: in vivo, mouse
Method: Therapeutic ISM1 recombinant protein administration in vivo. All pharmacologic studies using recombinant ISM1 protein were performed in mice with established diet-induced obesity or non-alcoholic fatty liver disease (NAFLD). For all experiments, male C57BL/6J mice purchased from Jax were fed either a high-fat diet (#D12492, Research Diets) or a NAFLD diet (#D09100310, Research Diets) prior to ISM1 protein injections. In all experiments, mice were mock injected with saline for three days prior to protein or drug injections to prevent stress-induced weight loss. Mice were I.P. injected with vehicle (saline) or indicated doses of ISM1 protein diluted in saline. For the 14-day experiments in NAFLD mice, 7-weeks old mice were fed with NAFLD diet for 3 weeks and then mock injected with saline for 3 days prior to protein injections. The induction of lipid accumulation with NAFLD diet was verified by the significant increase in hepatic lipid levels compared with mice on chow diet at the same time point. NAFLD mice were then daily I.P. injected with either vehicle (saline containing 5% DMSO and 10% Kolliphor) or indicated doses of ISM1 protein (500 μg/kg or 5 mg/kg) or with FXR agonist (30 mg/kg, GW4064, Sigma-Aldrich, #G5172) diluted in vehicle (saline containing 5% DMSO and 10% Kolliphor). For the 21-day experiments in HFD mice, mice were mock injected with saline for three days prior to protein injections. Mice were then daily I.P. injected with either vehicle (saline) or 5 mg/kg of ISM1 protein diluted in saline. Metformin (100 mg/kg, Sigma, #317240) was diluted in saline and daily administered by oral gavage. All groups received control injections by I.P. and oral gavage. At the end of the experiments, mice and tissue weights were recorded. Tissues and plasma were collected and frozen for further analyses.
Immunohistochemistry. For H&E staining, livers were formalin-fixed, paraffin-embedded, and sectioned at 6 μm. For hematoxylin and eosin (H&E) staining, sections were deparaffinized and […] with xylenes and ethanol. Briefly, slides were stained with hematoxylin, washed with water and 95% ethanol, and stained with eosin for 30 min. Sections were then incubated with ethanol and xylene, and mounted with mounting medium. For Oil red O stainings, frozen liver tissue slides were fixed with 3% formalin in PBS, washed twice with water, incubated with 60% isopropanol for 5 min and then incubated with Oil Red O solution (3:2 ratio of Oil Red O:H2O) for 20 min. […] Digital images were captured with a Nikon Digital Sight DS-Fi1 color camera and NIS-Elements acquisition software.

[8] = insulin 1 nM up to 100 nM with 25 nM or 50 nM ISM1
[9] = 0.5 mg/kg daily for 14 days, vs vehicle-treated NAFLD mice
[10] = 5 mg/kg ISM1 vs 30 mg/kg GW4064, 14 days
[11] = 5 mg/kg daily for 14 days, vs vehicle-treated NAFLD mice

B1: ISM1: recombinant mouse ISM1 protein with a C-terminal myc-his tag generated in mammalian HEK 293 Expi cells (protein, UniProt A2ATD1 30-454, looked up)
Isthmin-1: SDRQDAAAGNNNLNLESDSTSETSFPLSKEAPEEHQVVHQPFPRQRFPPETGHPSLQRDGPRSFLLDLPNFPDLSKADINGQNPNIQVTIEVVDGPDSEAEKDQHPENKPSWSLPAPDWRAWWQRSLSLARTNSGDQDDKYDSTSDDSNFLSVPRGWDRPAPGHRTFETKEQPEYDSTDGEGDWSLWSVCSVTCGNGNQKRTRSCGYACIATESRTCDRPNCPGIEDTFRTAATEVSLLAGSEEFNATKLFEVDMDSCERWMSCKSEFLKKYMHKVINDLPSCPCSYPTEVAYSTADIFDRIKRKDFRWKDASGPKEKLEIYKPTARYCIRSMLSLESTTLAAQHCCYGDNMQLITRGKGAGTPNLISTEFSAELHYKVDVLPWIICKGDWSRYNEARPPNNGQKCTESPSDEDYIKQFQEAREY
modifications: C-terminal myc-His tag
notes: recombinant mouse ISM1 protein with a C-terminal myc-his tag generated in mammalian HEK 293 Expi cells
[1]
  induction of glucose uptake: does not induce glucose uptake
[2]; 100 nM, 5 min
  pAKT^S473 bioactivity compared with commercially available ISM1 protein (R&D systems): comparable bioactivities
  top hit of phosphokinase array (43 proteins): phosphorylated protein kinase B (PKB)/AKT at S473
[2]; increasing doses, 5 min
  dose at which dose-dependent increase in pAKT^S473 phosphorylation starts: 50 nM
[2]; [8]
  AKT activity of ISM1 combined with insulin: additional effect
  potentiation of insulin on AKT activity: no evidence of potentiation
[3]; 100 nM, time course
  activation of S6^S235/S236 and PRAS40^Thr246: time-dependent activation
  pAKT^T308 phosphorylation: phosphorylation at pAKT^T308 at all time points
[3]; 100 nM, vs 20 ng/ml PDGF-ββ
  ERK1/2 phosphorylation: does not evoke as robust ERK1/2 phosphorylation as the known mitogen PDGF-ββ
[3]; 200 nM ISM1 vs 100 nM insulin
  ERK1/2 phosphorylation: prolonged and more potent phosphorylation of ERK1/2 than insulin
[3]; even at 200 nM doses
  activity on other pathways such as PKA, PDK1 or GSK3P: does not display any activity or displays only weak activity
[4]; 50 nM ISM1 in presence of 200 nM insulin
  lipogenesis at supraphysiological insulin: sufficient to reduce lipogenesis
[4]; 50 and 100 nM ISM1 with 50 nM insulin
  insulin-induced lipogenesis: reverse the insulin-induced lipogenesis dose-dependently
[5]; insulin-stimulated conditions
  cleaved SREBP-1c protein levels: potently reduces the cleaved SREBP-1c protein levels
  srebp1c, acc, fas and ChREBPβ gene expression: suppressing srebp1c and the lipogenesis target genes acc, fas, and ChREBPβ
[5]; primary adipocytes
  srebp1c expression under basal conditions: no induction
[6]
  insulin tolerance (ITT): modest improvement
[6]; vs vehicle
  ad lib glucose levels: no difference
[7]; [9]
  fed blood glucose reduced: not
  liver weights reduced: not
[7]; [10]
  effect on liver weights, blood glucose and histological signs of steatosis compared with benchmark: as potent as the FXR agonist GW4064 treatment
  reversal of hepatic steatosis compared with benchmark: performs equal to the FXR agonist GW4064
[7]; [11]
  fed blood glucose: reduced
  liver weights: reduced liver weights
[7]; 5 mg/kg, 14 days
  hepatic Fatty Acid Synthase (FAS) protein levels: reduced hepatic Fatty Acid Synthase (FAS) protein levels
  liver Oil red O staining: reduced Oil red O staining
[7]; 5 mg/kg, 14 days, vs vehicle treated NAFLD mice
  gross liver morphology: obvious gross morphological changes in liver size and color
